For data set [1], the system named is bee venom (BV) hypersensitive patients. In words: Intradermal (ID) skin tests. The data set is classed as in vivo, human. To be noted: for immediate allergic reaction to intradermal injection: representative patient of peptide group (FIG. 5), 1 μg/ml each OPF, 0.01 μg/ml native PLA2. As to the method: Skin testing: ID tests with BV, PLA2 and peptides were performed as described in Müller et al., Allergy 48(14):37-46, 1993. Concentrations tested ranged from 10^−3 μg/ml to 1 μg/ml (10-fold dilution series). […] The 0.1 μg/ml concentration was defined as the end-point concentration (EPC), as higher concentrations of BV and PLA2 may induce non specific toxic reactions. See Müller et al., J. Allergy Clin. Immunol. 96:395-402, 1995.

In data set [2] the test system is IgE. In words: In vitro IgE binding, dot blot analysis. To be noted: 1 μg spotted; control and peptide groups; order: OPF90-134, then OPF1-60. Set-up: species or system human. The protocol:
Immunoblotting and dot blot analysis: Anti-BV or -PLA2 immunoblots were processed as described in Kettner et al., Clin. Experiment. Allergy 29:394-401, 1999. For dot blot analysis, 1 μg of whole BV, PLA2, OPFs or human albumin was diluted ¼ in DMSO, spotted on PVDF membranes and dried for 30 min. at 37° C. After blocking in non-fat milk 5%, further steps were performed as described in Kettner et al., Clin. Experiment. Allergy 29:394-401 1999. Dot densities were analyzed by scanning densitometry using an Advanced American Biotechnology scanner, Fullerton, Calif.

On to “OPF90-134: PLA2 fragment amino acid sequence (45 aa), C-terminal overlapping peptide fragment of Apis mellifera PLA2 (LIDTKCYKLEHPVTGCGERTEGRCLHYTVDKSKPKVYQWFDLRKY)”, for which the “immediate allergic reaction to intradermal injection” value (“immediate allergic reaction” below) in data set [1] is given as “absence of immediate allergic reaction”. The “IgE binding to the peptide (order among the three OPFs)” value in data set [2] is recorded as “higher level”.

As to “OPF1-60: PLA2 fragment amino acid sequence (60 aa), N-terminal overlapping peptide fragment of Apis mellifera PLA2 (IIYPGTLWCGHGNKSSGPNELGRFKHTDACCRTHDMCPDVMSAGESKHGLTNTASHTRLS)”, the “immediate allergic reaction” value in data set [1] is “absence of immediate allergic reaction”.

As to “phospholipase A2 [native PLA2, reference compound]”, in data set [1] (day 0, all patients in OPF and control group), the ID tests result is recorded as “positive”. Also, the “immediate allergic reaction” value in data set [1] was “positive”.

Consider “OPF47-99: PLA2 fragment amino acid sequence (53 aa), internal overlapping peptide fragment of Apis mellifera PLA2 (KHGLTNTASHTRLSCDCDDKFYDCLKNSADTISSYFVGKMYFNLIDTKCYKLE)”, for which the “immediate allergic reaction” value in data set [1] was “absence of immediate allergic reaction”. Besides, in data set [2], the “IgE binding to the peptide (order among the three OPFs)” value was “undetectable”.

The values are drawn from patent US9808503B2, “Allergen peptide fragments and use thereof for treatment of birch pollen allergies” (ANERGIS S.A., priority 2003, dated 2017).
